Laboratory results: patent CN116745314A

Molecular target: spike glycoprotein of live SARS-CoV-2 (isolate USA-WA1/2020) (SARS-CoV-2) (UniProt P0DTC2)
Test: cell-based or functional assay

## S2E12-LS (antibody)
  EC50 (live SARS-CoV-2-luc neutralisation, MOI 0.1, 6 h): 5 ng/mL
  EC90 (live SARS-CoV-2-luc neutralisation, MOI 0.1, 6 h): 30 ng/mL
  IC50 (live SARS-CoV-2-luc neutralisation, MOI 0.1, 6 h): 4.84 ng/mL
